Laboratory results from PMC2712976 (The Journal of General Physiology, 2009).

Columns and labels:
F-actin = F-actin (UniProt P68135); test: co-sedimentation
gel electrophoresis = target: the molecule itself; test: gel electrophoresis
CFP-SERCA1a = CFP-SERCA1a (UniProt O14983-2 1-994); test: FRET or BRET

## first four N-terminal domains (C0-C1-motif-C2) of cardiac myosin binding protein C (domain or fragment)
F-actin
  Kd: 10 µM
  stoichiometry N: 1 molar ratio

B1: WT phospholamban (in vitro sample) (natural protein)
chain: MEKVQYLTRSAIRRASTIEMPQQARQKLQNLFINFCLILICLLLICIIVMLL
Gel electrophoresis
  stoichiometry N: 5

B2: YFP-PLB (natural protein)
chain: B1 chain
CFP-SERCA1a
  fold higher apparent affinity relative to SERCA2a: 2.6 fold
